Experimental data as given in PMC3892959.

Assays:
[1] = molecular target: T1, rhVEGF165 (recombinant human vascular endothelial growth factor 165) (human, UniProt P15692-4 27-191); test: affinity capillary electrophoresis
[2] = molecular target: T1, rhVEGF165 (recombinant human vascular …); test: fluorescence polarization

For GTCTGTACCAATCTAAAAGTGTATATTATATCTACGAGCCT (ssDNA) [R 1], the Kd [1] was 53 nM and the Kd [2] was 100 nM.

TGGCTGTTATTTCTCTCGGCCTCAGATCTTGGGCCCAACA (ssDNA) [C 3] was tested, and the Kd [1] was 66 nM and the Kd [2] was 164 nM.

In the case of CCTTGTCATGATAGCTATGTTTCAGCCAACCATACCCGCT (ssDNA) [R 3], the Kd [1] is reported as 22 nM and the Kd [2] is reported as 46 nM.

In the case of CGAGGATATCCGATTGTGGGTGACGTATTGGACACCTTCCCG (ssDNA) [C 2], the Kd [1] is reported as 21 nM and the Kd [2] is reported as 162 nM.

Binder ATTCTGGGGAGTGGTACGTAAGCAGTGCCACCACGGTTAT (ssDNA) [R 2] has a Kd [1] of 72 nM and a Kd [2] of 88 nM.

For GGAAGCCCGCTGTGACATCTGGAGCCGGTTCCCGAGCCA (ssDNA) [C 1], the Kd [1] was 49 nM and the Kd [2] was 101 nM.
